# In article PMC3633458:
# Tests used:
# [1] = molecular target: Escherichia coli-expressed Plasmodium falciparum merozoite surface protein 3 (EcMSP3) (Plasmodium falciparum (FVO strain)); assay: SEC-MALS
# [2] = molecular target: Escherichia coli-expressed Plasmodium falciparum merozoite surface protein 3 (EcMSP3) (Plasmodium falciparum (FVO strain)); assay: AUC
substance,measurement,setting,value
Escherichia coli-expressed Plasmodium falciparum merozoite surface protein 3 (EcMSP3) (domain or fragment),stoichiometry N,[1],2
same,stoichiometry N,[2],2
